Results reported in patent US20180073000A1.
Changes are numbered by the printed parent chain.

Columns and labels:
[1] = target: T1, GALNS-242 (C4-N7 + E8-N11) (Homo sapiens)
T1 sequence: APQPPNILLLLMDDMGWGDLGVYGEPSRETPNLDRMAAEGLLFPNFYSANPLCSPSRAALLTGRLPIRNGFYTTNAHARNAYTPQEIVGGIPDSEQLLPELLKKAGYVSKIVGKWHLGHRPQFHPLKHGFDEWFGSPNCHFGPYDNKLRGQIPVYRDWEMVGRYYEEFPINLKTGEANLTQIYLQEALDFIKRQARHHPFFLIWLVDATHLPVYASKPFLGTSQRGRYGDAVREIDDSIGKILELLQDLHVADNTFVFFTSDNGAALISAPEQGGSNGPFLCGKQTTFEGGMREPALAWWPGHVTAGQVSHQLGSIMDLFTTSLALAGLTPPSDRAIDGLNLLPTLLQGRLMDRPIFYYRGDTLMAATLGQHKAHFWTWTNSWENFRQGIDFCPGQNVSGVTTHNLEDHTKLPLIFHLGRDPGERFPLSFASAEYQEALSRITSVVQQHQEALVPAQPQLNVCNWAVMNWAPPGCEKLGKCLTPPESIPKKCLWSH

[2] = target: T2, E8-N13 modified GALNS (Homo sapiens)
T2 sequence: T1 sequence with L148A, G150P, Q151N, L205A, A208L

[3] = target: T3, GALNS-201 (C4-N6 + I10-N14) (Homo sapiens)
T3 sequence: T1 sequence with L148I, I203Y, L205A, L211A, P455G, A456I, P458G

[4] = target: T4, GALNS-231 (C4-N6 + E8-N14 + I10-N14) (Homo sapiens)
T4 sequence: T1 sequence with L148I, L205A, A208L, L211I, P455G, A456I, P458G

[5] = target: T5, I10-N14 modified GALNS (Homo sapiens)
T5 sequence: T1 sequence with L148A, G150P, Q151N, I203Y, L205A, L211A, P455G, A456I, P458G

[6] = target: T6, C4-N6 modified GALNS (Homo sapiens)
T6 sequence: T1 sequence with L148I, I203Y, L205A, L211A

[7] = target: T7, Wild type N-acetylgalactosamine-6-sulfate sulfatase (GALNS) (Homo sapiens)
T7 sequence: T1 sequence with L148A, G150P, Q151N, I203Y, L205A, L211A

[8] = target: T8, GALNS-315 (E8-N14 + I10-N14) (Homo sapiens)
T8 sequence: T1 sequence with L148A, G150P, Q151N, L205A, A208L, L211I, P455G, A456I, P458G

B1: Sulfatase-modifying factor 1 (SUMF1) (enzyme)
chain: SQEAGTGAGAGSLAGSCGCGTPQRPGAHGSSAAAHRYSREANAPGPVPGERQLAHSKMVPIPAGVFTMGTDDPQIKQDGEAPARRVTIDAFYMDAYEVSNTEFEKFVNSTGYLTEAEKFGDSFVFEGMLSEQVKTNIQQAVAAAPWWLPVKGANWRHPEGPDSTILHRPDHPVLHVSWNDAVAYCTWAGKRLPTEAEWEYSCRGGLHNRLFPWGNKLQPKGQHYANIWQGEFPVTNTGEDGFQGTAPVDAFPPNGYGLYNIVGNAWEWTSDWWTVHHSVEETLNPKGPPSGKDRVKKGGSYMCHRSYCYRYRCAARSQNTPDSSASNLGFRCAADRLPTMD
GALNS enzyme activity in the pellet of COS-7 cells co-transfected with SUMF1, percentage of GALNS without SUMF1 (percent of GALNS (without SUMF1)) [1]: 434 | GALNS enzyme activity in the pellet of COS-7 cells co-transfected with SUMF1, percentage of GALNS without SUMF1 (percent of GALNS (without SUMF1)) [2]: 567 | GALNS enzyme activity in the pellet of COS-7 cells co-transfected with SUMF1, percentage of GALNS without SUMF1 (percent of GALNS (without SUMF1)) [3]: 545 | GALNS enzyme activity in the pellet of COS-7 cells co-transfected with SUMF1, percentage of GALNS without SUMF1 (percent of GALNS (without SUMF1)) [4]: 628 | GALNS enzyme activity in the pellet of COS-7 cells co-transfected with SUMF1, percentage of GALNS without SUMF1 (percent of GALNS (without SUMF1)) [5]: 568 | GALNS enzyme activity in the pellet of COS-7 cells co-transfected with SUMF1, percentage of GALNS without SUMF1 (percent of GALNS (without SUMF1)) [6]: 443 | GALNS enzyme activity in the pellet of COS-7 cells co-transfected with SUMF1, percentage of GALNS without SUMF1 (percent of GALNS (without SUMF1)) [7]: 1930 | GALNS enzyme activity in the pellet of COS-7 cells co-transfected with SUMF1, percentage of GALNS without SUMF1 (percent of GALNS (without SUMF1)) [8]: 563
